Reference: US20160333065A1

Target: HLA-A1 (A*0101) (human)
Test: cell competition vs YLEPAC(FI)AKY, stripped CAA B-LCL, FACS

IC50: 1000 nM
Binder: ITDDQLLAL (modifications not checked) [PRAME peptide …]
